Experiments:
endogenous IL-36γ = biological target: T1, endogenous IL-36γ
T1 chain: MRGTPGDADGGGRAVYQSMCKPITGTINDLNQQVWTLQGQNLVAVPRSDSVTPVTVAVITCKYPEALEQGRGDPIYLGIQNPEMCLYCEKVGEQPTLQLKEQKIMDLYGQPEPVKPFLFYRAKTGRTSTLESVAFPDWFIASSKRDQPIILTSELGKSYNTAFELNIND

[1] = biological target: T2, DEVD-modified IL-36β, full length unprocessed
T2 sequence (Q9NZH7 whole entry, species assumed, looked up): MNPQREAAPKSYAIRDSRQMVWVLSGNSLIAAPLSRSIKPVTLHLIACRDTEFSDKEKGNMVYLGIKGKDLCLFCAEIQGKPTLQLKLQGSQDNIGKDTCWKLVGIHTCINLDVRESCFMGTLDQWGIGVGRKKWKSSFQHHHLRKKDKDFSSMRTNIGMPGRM

[2] = biological target: T3, DEVD-modified IL-36γ, full length
T3 sequence (Q9NZH8 whole entry, species assumed, looked up): T1 chain

[3] = biological target: T4, Full-length poly-histidine-tagged human IL-36β
T4 chain: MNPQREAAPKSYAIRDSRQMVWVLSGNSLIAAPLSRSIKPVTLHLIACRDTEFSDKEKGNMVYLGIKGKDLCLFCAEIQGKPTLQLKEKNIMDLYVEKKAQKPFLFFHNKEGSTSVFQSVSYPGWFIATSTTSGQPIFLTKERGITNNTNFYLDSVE

biotin-FLF-CMK = biological target: T5, biotin-FLF-CMK
T5 chain: FLF

B1: Purified Neutrophil-derived Elastase (protein)
chain: IVGGRRARPHAWPFMVSLQLRGGHFCGATLIAPNFVMSAAHCVANVNVRAVRVVLGAHNLSRREPTRQVFAVQRIFENGYDPVNLLNDIVILQLNGSATINANVQVAQLPAQGRRLGNGVQCLAMGWGLLGRNRGIASVLQELNVTVVTSLCRRSNVCTLVRGRQAGVCFGDSGSPLVCNGLIHGIASFVRGGCASGLYPDAFAPVAQFVNWIDSIIQ
**Q.** For B1, which “proteolysis of endogenous IL-36γ from keratinocyte extracts and supernatants, immunoblot” value (endogenous IL-36γ) is on record?
**A.** IL-36γ incubated with elastase resulted in robust IL-36γ proteolysis both intracellularly as well as extracellularly

**Q.** And the “proteolysis of endogenous IL-36γ in psoriatic skin homogenates, immunoblot” value (endogenous IL-36γ)?
**A.** incubating these psoriatic homogenates with neutrophil elastase resulted in IL-36γ proteolysis

B2: Recombinant poly-histidine-tagged caspase-3 (protein)
chain: SGISLDNSYKMDYPEMGLCIIINNKNFHKSTGMTSRSGTDVDAANLRETFRNLKYEVRNKNDLTREEIVELMRDVSKEDHSKRSSFVCVLLSHGEEGIIFGTNGPVDLKKITNFFRGDRCRSLTGKPKLFIIQACRGTELDCGIETDSGVDDDMACHKIPVEADFLYAYSTAPGYYSWRNSKDGSWFIQSLCAMLKQYADKLEFMHILTRVNRKVATEFESFSFDATFHAKKQIPCIVSMLTKELYFYH
**Q.** How did the “proteolytic processing, immunoblot” value [1] turn out when B2 was run?
**A.** DEVD-modified IL-36β (IL-36b^DEVD) and DEVD-modified IL-36γ (IL-36g^DEVD) was readily processed by caspase-3

**Q.** And the “proteolytic processing, immunoblot” value [2]?
**A.** DEVD-modified IL-36β (IL-36b^DEVD) and DEVD-modified IL-36γ (IL-36g^DEVD) was readily processed by caspase-3

B3: purified cathepsin K (protein)
chain: APDSVDYRKKGYVTPVKNQGQCGSCWAFSSVGALEGQLKKKTGKLLNLSPQNLVDCVSENDGCGGGYMTNAFQYVQKNRGIDSEDAYPYVGQEESCMYNPTGKAAKCRGYREIPEGNEKALKRAVARVGPVSVAIDASLTSFQFYSKGVYYDESCNSDNLNHAVLAVGYGIQKGNKHWIIKNSWGENWGNKGYILMARNKNNACGIANLASFPKM
**Q.** B3 was tested. Which “cleavage and activation of IL-36β” value [3] did it give?
**A.** cathepsin K, a protease predominantly expressed in osteoclasts, can cleave and activate IL-36β (beta) at the same residue as Cathepsin G (NPQR5 EAAP)

B4: Purified Neutrophil-derived Cathepsin G (protein)
chain: IIGGRESRPHSRPYMAYLQIQSPAGQSRCGGFLVREDFVLTAAHCWGSNINVTLGAHNIQRRENTQQHITARRAIRHPQYNQRTIQNDIMLLQLSRRVRRNRNVNPVALPRAQEGLRPGTLCTVAGWGRVSMRRGTDTLREVQLRVQRDRQCLRIFGSYDPRRQICVGDRRERKAAFKGDSGGPLLCNNVAHGIVSYGKSSGVPPEVFTRVSSFLPWIRTTMRS
**Q.** B4 was tested. Which “depletion of cathepsin G activity from degranulates with streptavidin agarose (FLF-sBzl hydrolysis; IL-36β bioassay)” value (biotin-FLF-CMK) did it give?
**A.** selective depletion of cathepsin G activity from PMA-treated neutrophil degranulates using biotin-FLF-CMK largely eliminated activation of IL-36b but not of IL-36g

From patent publication US20170281716
